Results as given in PMC9482650, “Quantitative fragmentomics allow affinity mapping of interactomes” (Nature Communications, 2022).

Assays:
Test in all cases: holdup assay
Parameters in all cases: key: below the threshold = too weak to quantify, mostly under pKd 3.1 to 4
Settings in all cases: plain residues with an end cap or a label only (N-terminal biotin on a linker: ado-ado)
GRIP2_7, Q9C0E4 = target: GRIP2_7, Q9C0E4
DLG4_3, P78352 = target: DLG4_3, P78352
GORASP2, Q9H8Y8 = target: GORASP2, Q9H8Y8
GRIP1_3, Q9Y3R0 = target: T1, GRIP1_3, Q9Y3R0
T1 sequence (Q9Y3R0 247-346, limits assumed, looked up): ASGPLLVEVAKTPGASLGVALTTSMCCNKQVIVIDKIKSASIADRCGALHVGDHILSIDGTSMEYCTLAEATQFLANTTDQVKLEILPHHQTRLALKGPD

MPP7, Q5T2T1 = target: T2, MPP7, Q5T2T1
T2 sequence (Q5T2T1 134-230, limits assumed, looked up): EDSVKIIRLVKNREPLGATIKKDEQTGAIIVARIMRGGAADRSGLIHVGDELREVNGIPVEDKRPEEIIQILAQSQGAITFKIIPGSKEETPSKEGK

MAGI2_4, Q86UL8 = target: MAGI2_4, Q86UL8
MAGI2_2, Q86UL8 = target: MAGI2_2, Q86UL8
LAP2, Q96RT1 = target: LAP2, Q96RT1
GRIP2_3, Q9C0E4 = target: GRIP2_3, Q9C0E4
SNX27, Q96L92 = target: SNX27, Q96L92
SYNJ2BP, P57105 = target: T3, SYNJ2BP, P57105
T3 sequence (P57105 8-110, limits assumed, looked up): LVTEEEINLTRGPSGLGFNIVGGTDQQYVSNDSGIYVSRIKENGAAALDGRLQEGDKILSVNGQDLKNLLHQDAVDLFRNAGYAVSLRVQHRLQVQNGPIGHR

GRID2IP_1, A4D2P6 = target: GRID2IP_1, A4D2P6
SCRIB_1, Q14160 = target: SCRIB_1, Q14160
CARD11, Q9BXL7 = target: T4, CARD11, Q9BXL7
T4 sequence (Q9BXL7 662-765, limits assumed, looked up): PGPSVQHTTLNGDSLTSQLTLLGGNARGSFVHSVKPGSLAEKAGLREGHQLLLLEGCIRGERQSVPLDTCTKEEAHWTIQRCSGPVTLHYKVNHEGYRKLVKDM

GRIP1_2, Q9Y3R0 = target: T5, GRIP1_2, Q9Y3R0
T5 sequence (Q9Y3R0 145-248, limits assumed, looked up): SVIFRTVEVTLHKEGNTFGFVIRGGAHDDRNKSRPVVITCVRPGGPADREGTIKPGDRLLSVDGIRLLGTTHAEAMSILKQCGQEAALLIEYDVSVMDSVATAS

FRMPD3, Q5JV73 = target: FRMPD3, Q5JV73
DLG1_3, Q12959 = target: DLG1_3, Q12959
GRIP1_5, Q9Y3R0 = target: T6, GRIP1_5, Q9Y3R0
T6 sequence (Q9Y3R0 568-668, limits assumed, looked up): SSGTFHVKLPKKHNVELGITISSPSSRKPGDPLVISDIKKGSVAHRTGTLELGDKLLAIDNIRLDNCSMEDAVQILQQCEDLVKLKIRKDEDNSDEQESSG

DFNB31_3, Q9P202 = target: T7, DFNB31_3, Q9P202
T7 sequence (Q9P202 811-907, limits assumed, looked up): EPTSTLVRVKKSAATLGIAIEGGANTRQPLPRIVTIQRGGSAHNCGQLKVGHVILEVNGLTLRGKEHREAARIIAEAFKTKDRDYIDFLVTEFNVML

PDZRN4_1, Q6ZMN7 = target: PDZRN4_1, Q6ZMN7
SCRIB_2, Q14160 = target: SCRIB_2, Q14160
LIN7C, Q9NUP9 = target: T8, LIN7C, Q9NUP9
T8 sequence (Q9NUP9 88-185, limits assumed, looked up): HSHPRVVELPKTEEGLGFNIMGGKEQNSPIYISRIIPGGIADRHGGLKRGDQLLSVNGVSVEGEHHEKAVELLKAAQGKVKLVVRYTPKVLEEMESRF

APBA1_2, Q02410 = target: T9, APBA1_2, Q02410
T9 sequence (Q02410 742-832, limits assumed, looked up): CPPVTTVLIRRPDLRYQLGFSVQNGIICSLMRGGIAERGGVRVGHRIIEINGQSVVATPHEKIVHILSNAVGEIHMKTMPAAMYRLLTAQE

HTRA2, O43464 = target: HTRA2, O43464
TJP2_1, Q9UDY2 = target: TJP2_1, Q9UDY2
AHNAK1, Q09666 = target: AHNAK1, Q09666
TJP3_3, O95049 = target: T10, TJP3_3, O95049
T10 sequence (O95049 375-456, limits assumed, looked up): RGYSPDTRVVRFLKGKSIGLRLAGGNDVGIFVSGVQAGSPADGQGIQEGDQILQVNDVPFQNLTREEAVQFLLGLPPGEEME

PDZRN4_1, Q6ZMN7, sequence (Q6ZMN7 213-318): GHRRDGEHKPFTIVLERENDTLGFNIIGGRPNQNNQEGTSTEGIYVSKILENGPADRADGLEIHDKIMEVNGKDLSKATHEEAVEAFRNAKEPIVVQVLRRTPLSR
HTRA2, O43464, sequence (O43464 355-458): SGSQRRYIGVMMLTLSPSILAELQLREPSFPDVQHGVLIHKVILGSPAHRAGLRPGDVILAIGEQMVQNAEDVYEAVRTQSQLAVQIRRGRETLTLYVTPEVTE
LAP2, Q96RT1, sequence (Q96RT1 other isoform, or with tags, fused parts or gaps): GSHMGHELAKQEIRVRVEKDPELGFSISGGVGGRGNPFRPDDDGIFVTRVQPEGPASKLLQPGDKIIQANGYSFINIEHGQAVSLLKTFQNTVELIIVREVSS
MAGI2_4, Q86UL8, sequence (Q86UL8 772-865): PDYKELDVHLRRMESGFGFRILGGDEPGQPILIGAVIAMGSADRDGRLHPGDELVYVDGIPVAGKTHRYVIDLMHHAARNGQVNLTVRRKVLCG
AHNAK1, Q09666, sequence (Q09666 4-100): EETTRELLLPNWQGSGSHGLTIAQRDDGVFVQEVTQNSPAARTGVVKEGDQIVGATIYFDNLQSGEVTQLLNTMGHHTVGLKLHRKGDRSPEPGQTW
SCRIB_2, Q14160, sequence (Q14160 857-960): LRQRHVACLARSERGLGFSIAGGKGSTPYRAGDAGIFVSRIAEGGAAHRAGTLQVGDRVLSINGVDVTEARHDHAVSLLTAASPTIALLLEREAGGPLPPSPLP
DLG1_3, Q12959, sequence (Q12959 457-571): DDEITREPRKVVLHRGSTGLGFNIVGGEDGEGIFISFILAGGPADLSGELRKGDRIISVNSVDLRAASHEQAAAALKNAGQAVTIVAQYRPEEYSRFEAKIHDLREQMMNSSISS
DLG4_3, P78352, sequence (P78352 306-403): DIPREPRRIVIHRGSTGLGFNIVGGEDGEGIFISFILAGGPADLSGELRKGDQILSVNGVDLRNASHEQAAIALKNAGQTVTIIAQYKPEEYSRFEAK
MAGI2_2, Q86UL8, sequence (Q86UL8 410-522): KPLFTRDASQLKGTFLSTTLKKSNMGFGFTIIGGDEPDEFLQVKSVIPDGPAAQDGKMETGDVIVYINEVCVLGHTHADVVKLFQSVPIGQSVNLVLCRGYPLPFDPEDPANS
GRID2IP_1, A4D2P6, sequence (A4D2P6 1-87): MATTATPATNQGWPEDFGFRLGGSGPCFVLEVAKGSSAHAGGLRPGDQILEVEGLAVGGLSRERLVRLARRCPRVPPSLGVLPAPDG
FRMPD3, Q5JV73, sequence (Q5JV73 12-100): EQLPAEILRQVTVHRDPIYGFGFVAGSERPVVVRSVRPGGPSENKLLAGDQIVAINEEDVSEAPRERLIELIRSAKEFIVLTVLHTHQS
TJP2_1, Q9UDY2, sequence (Q9UDY2 24-128): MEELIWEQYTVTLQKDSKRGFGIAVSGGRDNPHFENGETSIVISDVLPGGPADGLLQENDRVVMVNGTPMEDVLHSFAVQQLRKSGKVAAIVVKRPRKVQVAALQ
GRIP2_3, Q9C0E4, sequence (Q9C0E4 238-339): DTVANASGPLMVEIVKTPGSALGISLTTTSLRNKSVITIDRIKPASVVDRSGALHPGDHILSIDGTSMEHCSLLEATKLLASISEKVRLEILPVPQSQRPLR
SCRIB_1, Q14160, sequence (Q14160 718-814): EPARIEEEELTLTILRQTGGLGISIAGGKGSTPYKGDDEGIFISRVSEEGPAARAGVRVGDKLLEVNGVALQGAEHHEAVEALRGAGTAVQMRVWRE
GRIP2_7, Q9C0E4, sequence (Q9C0E4 934-1023): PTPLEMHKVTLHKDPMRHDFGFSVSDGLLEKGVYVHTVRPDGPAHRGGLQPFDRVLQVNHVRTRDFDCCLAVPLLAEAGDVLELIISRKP

B1: RASL11B, Q9BPW5 (peptide)
chain: SAKVRTVTSV
GRIP2_7, Q9C0E4
  pKd: below the threshold
DLG4_3, P78352
  pKd: 4.93
GORASP2, Q9H8Y8
  pKd: 4.56
GRIP1_3, Q9Y3R0
  pKd: below the threshold
MPP7, Q5T2T1
  pKd: below the threshold
MAGI2_4, Q86UL8
  pKd: 4.19
MAGI2_2, Q86UL8
  pKd: 5.92
LAP2, Q96RT1
  pKd: 3.66
GRIP2_3, Q9C0E4
  pKd: below the threshold
SNX27, Q96L92
  pKd: 4.73
SYNJ2BP, P57105
  pKd: 4.95
GRID2IP_1, A4D2P6
  pKd: below the threshold
SCRIB_1, Q14160
  pKd: 4.17
CARD11, Q9BXL7
  pKd: below the threshold
GRIP1_2, Q9Y3R0
  pKd: below the threshold
FRMPD3, Q5JV73
  pKd: below the threshold
DLG1_3, Q12959
  pKd: 4.54
GRIP1_5, Q9Y3R0
  pKd: below the threshold
DFNB31_3, Q9P202
  pKd: below the threshold
PDZRN4_1, Q6ZMN7
  pKd: below the threshold
SCRIB_2, Q14160
  pKd: below the threshold
LIN7C, Q9NUP9
  pKd: below the threshold
APBA1_2, Q02410
  pKd: 3.92
HTRA2, O43464
  pKd: below the threshold
TJP2_1, Q9UDY2
  pKd: 4.14
AHNAK1, Q09666
  pKd: below the threshold
TJP3_3, O95049
  pKd: below the threshold

B2: MYOZ2, Q9NPC6 (peptide)
chain: DTTVPESEDL
GRIP2_7, Q9C0E4
  pKd: below the threshold
DLG4_3, P78352
  pKd: below the threshold
GORASP2, Q9H8Y8
  pKd: below the threshold
GRIP1_3, Q9Y3R0
  pKd: below the threshold
MPP7, Q5T2T1
  pKd: below the threshold
MAGI2_4, Q86UL8
  pKd: below the threshold
MAGI2_2, Q86UL8
  pKd: below the threshold
LAP2, Q96RT1
  pKd: below the threshold
GRIP2_3, Q9C0E4
  pKd: below the threshold
SNX27, Q96L92
  pKd: 3.65
SYNJ2BP, P57105
  pKd: below the threshold
GRID2IP_1, A4D2P6
  pKd: below the threshold
SCRIB_1, Q14160
  pKd: below the threshold
CARD11, Q9BXL7
  pKd: below the threshold
GRIP1_2, Q9Y3R0
  pKd: below the threshold
FRMPD3, Q5JV73
  pKd: below the threshold
DLG1_3, Q12959
  pKd: below the threshold
GRIP1_5, Q9Y3R0
  pKd: below the threshold
DFNB31_3, Q9P202
  pKd: below the threshold
PDZRN4_1, Q6ZMN7
  pKd: below the threshold
SCRIB_2, Q14160
  pKd: below the threshold
LIN7C, Q9NUP9
  pKd: below the threshold
APBA1_2, Q02410
  pKd: below the threshold
HTRA2, O43464
  pKd: below the threshold
TJP2_1, Q9UDY2
  pKd: below the threshold
AHNAK1, Q09666
  pKd: below the threshold
TJP3_3, O95049
  pKd: below the threshold

B3: KIF17, Q9P2E2 (peptide)
chain: SKSNFGSEPL
GRIP2_7, Q9C0E4
  pKd: below the threshold
DLG4_3, P78352
  pKd: below the threshold
GORASP2, Q9H8Y8
  pKd: below the threshold
GRIP1_3, Q9Y3R0
  pKd: below the threshold
MPP7, Q5T2T1
  pKd: below the threshold
MAGI2_4, Q86UL8
  pKd: below the threshold
MAGI2_2, Q86UL8
  pKd: below the threshold
LAP2, Q96RT1
  pKd: below the threshold
GRIP2_3, Q9C0E4
  pKd: below the threshold
SNX27, Q96L92
  pKd: below the threshold
SYNJ2BP, P57105
  pKd: below the threshold
GRID2IP_1, A4D2P6
  pKd: below the threshold
SCRIB_1, Q14160
  pKd: below the threshold
CARD11, Q9BXL7
  pKd: below the threshold
GRIP1_2, Q9Y3R0
  pKd: below the threshold
FRMPD3, Q5JV73
  pKd: below the threshold
DLG1_3, Q12959
  pKd: below the threshold
GRIP1_5, Q9Y3R0
  pKd: below the threshold
DFNB31_3, Q9P202
  pKd: below the threshold
PDZRN4_1, Q6ZMN7
  pKd: below the threshold
SCRIB_2, Q14160
  pKd: below the threshold
LIN7C, Q9NUP9
  pKd: 4.09
APBA1_2, Q02410
  pKd: below the threshold
HTRA2, O43464
  pKd: below the threshold
TJP2_1, Q9UDY2
  pKd: below the threshold
AHNAK1, Q09666
  pKd: below the threshold
TJP3_3, O95049
  pKd: below the threshold

B4: RNF146, Q9NTX7 (peptide)
chain: PDGQCTVTEV
GRIP2_7, Q9C0E4
  pKd: 3.56
DLG4_3, P78352
  pKd: 3.5
GORASP2, Q9H8Y8
  pKd: 4.17
GRIP1_3, Q9Y3R0
  pKd: below the threshold
MPP7, Q5T2T1
  pKd: below the threshold
MAGI2_4, Q86UL8
  pKd: 4.38
MAGI2_2, Q86UL8
  pKd: 3.86
LAP2, Q96RT1
  pKd: 4.22
GRIP2_3, Q9C0E4
  pKd: below the threshold
SNX27, Q96L92
  pKd: 5.19
SYNJ2BP, P57105
  pKd: 4.75
GRID2IP_1, A4D2P6
  pKd: below the threshold
SCRIB_1, Q14160
  pKd: 4.68
CARD11, Q9BXL7
  pKd: below the threshold
GRIP1_2, Q9Y3R0
  pKd: below the threshold
FRMPD3, Q5JV73
  pKd: below the threshold
DLG1_3, Q12959
  pKd: below the threshold
GRIP1_5, Q9Y3R0
  pKd: below the threshold
DFNB31_3, Q9P202
  pKd: 3.99
PDZRN4_1, Q6ZMN7
  pKd: below the threshold
SCRIB_2, Q14160
  pKd: 4.28
LIN7C, Q9NUP9
  pKd: below the threshold
APBA1_2, Q02410
  pKd: 4.32
HTRA2, O43464
  pKd: below the threshold
TJP2_1, Q9UDY2
  pKd: below the threshold
AHNAK1, Q09666
  pKd: below the threshold
TJP3_3, O95049
  pKd: below the threshold
